Results on 1 molecule are retold here after article PMC5458078, “Global mapping of CARM1 substrates defines enzyme specificity and substrate recognition” (Nature Communications, 2017).

For assay [1], the system named is MCF7 CARM1 KO cells. In words: Total cellular ADMA levels, stable expression, western blot. The class given is cell-based, human. Conditions: stable expression in MCF7 CARM1 KO cells; compared with CARM1 FL and CARM1 28–608. An excerpt: We next sought to assess the impact of CARM1 N-terminal deletion in cells stably expressing mutant enzymes. […] To quantify the affected ADMA-containing peptides in MCF7 CARM1 KO and CARM1 140–608 expressing cells, we employed our quantitative MS method (Fig. 1a) using CARM1 28–608 as a reference for normalization (Supplementary Data 4). […] The magnitude of reduction in CARM1 140–608 cells, however, was slightly less than that in the CARM1 KO cells. […] As indicated by R^2 of 0.65, noticeable differences existed between the levels of ADMA-containing peptides in cells expressing the N-terminal truncation of CARM1 and CARM1 28–608 control (Supplementary Fig. 4f).
Cells were collected by trypsinization, washed with Dulbecco's phosphate buffer saline (Life Technologies, Carlsbad, CA) and lysed by suspension in lysis buffer (50 mM Tris-HCl pH 8.0, 150 mM NaCl, 10% glycerol, 0.5% Triton X-100 and 1 × protease inhibitor cocktail (Sigma-Aldrich)). After brief sonication followed by centrifugation, total protein was quantified using the BioRad Protein Assay (BioRad, Hercules, CA), and 20 μg protein was resolved by SDS–PAGE. Proteins were transferred to a nitrocellulose membrane for 1.5 h at 350 mA. Membranes were blocked with 5% nonfat milk at room temperature for 1 h and incubated overnight with diluted primary antibody at 4 °C. […]

Assay [2] relates to HEK293T CARM1 KO cells. The experiment in a line: Total ADMA-containing proteins co-precipitated with FLAG-tagged CARM1, western blot. The class given is cell-based. The following applies: FLAG IP probed with ADMA antibody; compared with CARM1 FL and CARM1 28–608. From the text:
The structure of the N-terminal domain of CARM1 (residues 28–140) resembles those of the EVH1 domains, a subfamily of PH domains that bind proline-rich sequences. With our discovery that CARM1 substrates contain proline-rich motifs, we posited that the protein's N-terminal domain may be required for substrate recognition. To test this hypothesis, we generated three CARM1 constructs: one full-length (CARM1 FL) and two N-terminal truncations CARM1 28–608 and CARM1 140–608 (Fig. 3a). […] We transiently transfected the three FLAG-tagged CARM1 fusion constructs in HEK293T CARM1 KO cells. CARM1 was immunoprecipitated from all three cell lines using anti-FLAG M2 resin, and four known CARM1 substrates/interactors (that is, BAF155 (ref. [20]), MED12 (ref. [30]), PABP1 (ref. [36]) and NCOA3 (ref. [19])) and newly identified TET2 were detected by western blotting. […]
Cells were collected by trypsinization, washed with Dulbecco's phosphate buffer saline (Life Technologies, Carlsbad, CA) and lysed by suspension in lysis buffer (50 mM Tris-HCl pH 8.0, 150 mM NaCl, 10% glycerol, 0.5% Triton X-100 and 1 × protease inhibitor cocktail (Sigma-Aldrich)). After brief sonication followed by centrifugation, total protein was quantified using the BioRad Protein Assay (BioRad, Hercules, CA), and 20 μg protein was resolved by SDS–PAGE. […]

B1: CARM1 140–608: CARM1 140–608 lacks the first 140 residues encompassing the EVH1 domain (protein)
chain: RTEESSAVQYFQFYGYLSQQQNMMQDYVRTGTYQRAILQNHTDFKDKIVLDVGCGSGILSFFAAQAGARKIYAVEASTMAQHAEVLVKSNNLTDRIVVIPGKVEEVSLPEQVDIIISEPMGYMLFNERMLESYLHAKKYLKPSGNMFPTIGDVHLAPFTDEQLYMEQFTKANFWYQPSFHGVDLSALRGAAVDEYFRQPVVDTFDIRILMAKSVKYTVNFLEAKEGDLHRIEIPFKFHMLHSGLVHGLAFWFDVAFIGSIMTVWLSTAPTEPLTHWYQVRCLFQSPLFAKAGDTLSGTCLLIANKRQSYDISIVAQVDQTGSKSSNLLDLKNPFFRYTGTTPSPPPGSHYTSPSENMWNTGSTYNLSSGMAVAGMPTAYDLSSVIASGSSVGHNNLIPLANTGIVNHTHSRMGSIMSTGIVQGSSGAQGSGGGSTSAHYAVNSQFTMGGPAISMASPMSIPTNTMHYGS
modifications: left off: FLAG, end not stated, kept
notes: CARM1 140–608 lacks the first 140 residues encompassing the EVH1 domain
For the molecule B1, in assay [1], the “Cellular protein (ADMA) methylation levels” value is reported as “drastically decreased levels of cellular protein methylation”. The “Abundance of CARM1-interacting (ADMA-containing) proteins” value in assay [2] was “global decrease in abundance of CARM1-interacting proteins”.
